According to PMC5384750 (PLoS ONE, 2017):
Values joined by “and” are separate entries in the source; they are usually repeats but may differ in a detail not shown here. Equal values may be shown once.

Key:
[1] = molecular target: IDE (S10 extract or rIDE) (Homo sapiens, UniProt P14735); assay type: in vitro ADME; conditions: 30 ng vp6, 5 μg S10 extract, up to 60 min; Western blot densitometry; at least 3 independent experiments
Protocol: Fig 9 Multiplication of PTAPPA-motifs stabilizes p6. 20 ng of sp6 or 30 ng of vp6 were incubated either with 5 μg S10 extract (A/B/C) or 2 ng of rIDE (D) for up to 60 min. Degradation efficiency was quantified via densitometric analyses of Western blots. Values represent the arithmetic mean ± SD of at least 3 independent experiments for each setting.
Typically 5 μg S10 were incubated with inhibitor or buffer and 20–100 ng sp6 at 37°C for 30 min. Reactions were stopped by addition of sample buffer and incubation at 95°C for 5 min. Remaining p6 was detected by Western blotting using an anti-p6 rabbit antiserum. Alternatively, 10 ng of BODIPY FL-labeled sp6 (sp6BY) were used as substrate and detected directly in the polyacrylamide gel by fluorescence scanning. In some experiments the amount of p6 was densitometrically quantified with the software AIDA (Raytest). For the in vitro degradation of amyloid-β 10 ng of Aβ-FITC (abcam) were used analogously to sp6BY. For the in vitro degradation of viral p6, VLPs were pelleted and lysed in IDE enzyme buffer (150 mM NaCl, 50 mM Tris pH 7.4, 0.5% (v/v) Triton X-100). The p6 content was estimated by Western blotting using a dilution series of sp6 with known concentrations. Equivalents of 15 ng were used for digestion experiments and subsequently detected by Western blotting. […]

[2] = molecular target: T1, insulin-degrading enzyme (IDE) (Homo sapiens, UniProt P14735); test: Inhibition of Aβ-FITC degradation in S10 extract; assay type: biochemical; conditions: titration; 10 ng Aβ-FITC, 5 μg S10, 45 min, 37°C; fluorescence
T1 construct: endogenous in cells; host or cells: HeLa cells (cytosolic S10 extract)
Protocol: […] Reactions were stopped by addition of sample buffer and incubation at 95°C for 5 min. Remaining p6 was detected by Western blotting using an anti-p6 rabbit antiserum. Alternatively, 10 ng of BODIPY FL-labeled sp6 (sp6BY) were used as substrate and detected directly in the polyacrylamide gel by fluorescence scanning. In some experiments the amount of p6 was densitometrically quantified with the software AIDA (Raytest). For the in vitro degradation of amyloid-β 10 ng of Aβ-FITC (abcam) were used analogously to sp6BY. For the in vitro degradation of viral p6, VLPs were pelleted and lysed in IDE enzyme buffer (150 mM NaCl, 50 mM Tris pH 7.4, 0.5% (v/v) Triton X-100). The p6 content was estimated by Western blotting using a dilution series of sp6 with known concentrations. Equivalents of 15 ng were used for digestion experiments and subsequently detected by Western blotting. Experiments carried out with recombinant IDE (Calbiochem) were performed in IDE enzyme buffer. Recombinant FITC-labeled insulin was purchased from Sigma.
Supplementary file pone.0174254.s003.tif: S3 Fig p6 competes with the in vitro degradation of Aβ. […] Aβ-FITC was detected by measurement of fluorescence excitation. The band marked with * represents Aβ-oligomers and has been described earlier. (B) Band intensities were quantified for four independent experiments and values represent the arithmetic mean ± SD. […]

recombinant IDE (rIDE) = molecular target: T2, recombinant IDE (rIDE) (Rattus norvegicus, UniProt P35559); test: Inhibition of rIDE-mediated degradation of sp6BY; assay type: biochemical; conditions: 10 ng rIDE, 10 ng sp6BY, 30 min, 37°C; TPEN 1 mM, NEM 1 mM, insulin 100 μg/ml
T2 construct: purchased Calbiochem
T2 sequence (P35559 whole entry): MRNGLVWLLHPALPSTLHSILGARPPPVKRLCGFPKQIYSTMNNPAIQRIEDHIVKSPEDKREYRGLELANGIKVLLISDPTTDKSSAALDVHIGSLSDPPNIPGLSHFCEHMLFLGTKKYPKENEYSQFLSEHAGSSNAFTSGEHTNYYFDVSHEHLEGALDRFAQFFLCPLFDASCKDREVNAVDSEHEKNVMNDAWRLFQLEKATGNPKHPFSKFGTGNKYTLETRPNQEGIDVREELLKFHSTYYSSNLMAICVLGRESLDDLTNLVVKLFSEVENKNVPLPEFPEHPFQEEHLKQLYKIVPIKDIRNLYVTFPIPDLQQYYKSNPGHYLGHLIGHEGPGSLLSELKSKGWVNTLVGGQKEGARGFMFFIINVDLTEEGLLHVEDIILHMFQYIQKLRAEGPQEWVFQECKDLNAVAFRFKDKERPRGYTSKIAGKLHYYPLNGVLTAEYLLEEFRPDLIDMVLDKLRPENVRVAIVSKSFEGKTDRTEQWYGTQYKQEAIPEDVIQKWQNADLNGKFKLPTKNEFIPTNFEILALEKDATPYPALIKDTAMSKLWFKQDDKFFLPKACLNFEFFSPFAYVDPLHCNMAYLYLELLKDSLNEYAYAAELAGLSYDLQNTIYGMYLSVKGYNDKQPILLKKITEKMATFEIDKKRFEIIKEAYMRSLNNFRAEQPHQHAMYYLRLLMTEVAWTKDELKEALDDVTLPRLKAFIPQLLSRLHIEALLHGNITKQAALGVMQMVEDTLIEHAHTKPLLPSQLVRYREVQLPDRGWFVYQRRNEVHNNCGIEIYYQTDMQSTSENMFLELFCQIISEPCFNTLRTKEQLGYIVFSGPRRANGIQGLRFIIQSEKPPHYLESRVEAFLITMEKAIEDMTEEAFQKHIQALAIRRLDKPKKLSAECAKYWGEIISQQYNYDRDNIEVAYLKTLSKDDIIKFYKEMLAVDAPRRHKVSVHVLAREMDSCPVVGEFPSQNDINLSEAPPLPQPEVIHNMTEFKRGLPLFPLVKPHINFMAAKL
Protocol: Fig 6 IDE is sufficient and required for the in vitro degradation of sp6 and vp6. (A) 10 ng sp6BY were incubated with 5 μg S10 extract from HeLa cells, either untransfected or transfected with control or IDE-specific siRNA, for 0, 10, 30 or 90 min at 37°C. (B) sp6BY was detected by fluorescence emission and quantified. (C) VLP lysates from HEK293T cells were incubated with S10 from siRNA treated cells described in A. Viral proteins were detected as described in Fig 1. (D) Western blot analyses of the S10 extract used in A and C. The membrane was stained with antibodies specific for IDE, HSP70, and β-actin. […] (F) VLP lysates were incubated with 10 ng rIDE for 30 min.
Typically 5 μg S10 were incubated with inhibitor or buffer and 20–100 ng sp6 at 37°C for 30 min. Reactions were stopped by addition of sample buffer and incubation at 95°C for 5 min. Remaining p6 was detected by Western blotting using an anti-p6 rabbit antiserum. Alternatively, 10 ng of BODIPY FL-labeled sp6 (sp6BY) were used as substrate and detected directly in the polyacrylamide gel by fluorescence scanning. In some experiments the amount of p6 was densitometrically quantified with the software AIDA (Raytest). For the in vitro degradation of amyloid-β 10 ng of Aβ-FITC (abcam) were used analogously to sp6BY. For the in vitro degradation of viral p6, VLPs were pelleted and lysed in IDE enzyme buffer (150 mM NaCl, 50 mM Tris pH 7.4, 0.5% (v/v) Triton X-100). The p6 content was estimated by Western blotting using a dilution series of sp6 with known concentrations. Equivalents of 15 ng were used for digestion experiments and subsequently detected by Western blotting. Experiments carried out with recombinant IDE (Calbiochem) were performed in IDE enzyme buffer. Recombinant FITC-labeled insulin was purchased from Sigma.

R5-tropic HIV-1NL4-3 = test: HIV-1 replication capacity in activated PBMCs (RT activity, AUC); assay type: cell-based; conditions: 50 μg/ml insulin or 10 μM 6bK, permanent treatment; PHA-IL2-stimulated PBMCs from 3 different donors
Protocol: (§1) For infection, PBMCs were isolated from buffy coats of several blood donors and stimulated with PHA and IL-2 for three days. 1×10^6 PBMCs were incubated overnight with virus preparations equivalent to 0.031 ng of p24, and cell culture supernatant was collected every second or third day post infection (dpi). […] Virus replication was assessed by quantification of the virus-associated RT activity by [^32P]-TTP incorporation, using an oligo(dT)-poly(A) template as described elsewhere. In case of replications with inhibitor treatment, cell viability was determined in parallel by WST-1 assay (Roche) according to the manufacturer’s instructions on the last day of replication. For estimation of the multiplicity of infection (MOI), infectious units of virus stocks were determined by TCID50 end point titration in activated PBMCs. The number of HIV-1 target cells was estimated to be 50% of total PBMCs as reported in [93]. The MOI was calculated as the ratio of infectious units per target cells and was ~10^−4 in case of 0.031 ng p24 of input virus.
(§2) To determine the replication capacity of HIV-1 following infection with the indicated HIV-1 variants, the respective replication profiles were depicted as diagram (y-axis: RT activity; x-axis: dpi) and the area under curve was calculated and defined as the corresponding replication capacity of the HIV-1 variants. In every experiment the replication capacity of the untreated wt was set to 100% and compared with the indicated variants. Viability of treated cells was assessed on the last day of replication by the water-soluble tetrazolium method. All conditions were not found to diminish cell viability.

[3] = system: X4-tropic HIV-1NL4-3 3xPTAPPA mutant; test: as above; assay type: cell-based; conditions: 50 μg/ml insulin or 10 μM 6bK, permanent treatment; PHA-IL2-stimulated PBMCs from 3 different donors
Protocol: as §1, §2

X4-tropic HIV-1NL4-3 wt = test: as above; assay type: cell-based; conditions: continuous treatment with 50 μg/ml insulin; PHA-IL2-stimulated PBMCs from 3 different donors; MOI ~10^−4; untreated wt = 100%
Protocol: as §1, §2

[4] = system: X4-tropic field isolate HIV-1 BK132; test: as above; assay type: cell-based; conditions: 50 μg/ml insulin or 10 μM 6bK, permanent treatment; PHA-IL2-stimulated PBMCs from 3 different donors (S6 Fig)
Protocol: as §1, with “The number of HIV-1 target cells was estimated to be 50% of total PBMCs as reported in [93].” left out
To determine the replication capacity of HIV-1 following infection with the indicated HIV-1 variants, the respective replication profiles were depicted as diagram (y-axis: RT activity; x-axis: dpi) and the area under curve was calculated and defined as the corresponding replication capacity of the HIV-1 variants. […] Viability of treated cells was assessed on the last day of replication by the water-soluble tetrazolium method. […]

purified mammalian IDE = conditions: purified mammalian IDE; cited from earlier work

Compound | degradation kinetics of vp6 mutants in S10 [1] | effect on degradation of Aβ-FITC [2] | stabilization of sp6 in the presence of rIDE (recombinant IDE (rIDE)) | effect on replication capacity of R5-tropic HIV-1 (wt and 3xPTAPPA) (R5-tropic HIV-1NL4-3) | effect on replication capacity of the IDE-insensitive 3xPTAPPA mutant [3] | reduction of HIV-1 replication (replication capacity, AUC of RT activity) (X4-tropic HIV-1NL4-3 wt) | effect on replication capacity of HIV-1 BK132 compared with HIV-1NL4-3 [4] | Km (purified mammalian IDE) [µM] | kcat (purified mammalian IDE) [s⁻¹]
CC[C@H](C)[C@H](NC(=O)[C@@H]1CCCN1C(=O)[C@H](CCC(=O)O)NC(=O)[C@H](CCC(N)=O)NC(=O)[C@H](CCCCN)NC(=O)[C@H](CCC(N)=O)NC(=O)[C@H](CO)NC(=O)[C@@H]1CCCN1C(=O)[C@@H](NC(=O)[C@@H](NC(=O)[C@@H](NC(=O)[C@H](CCC(=O)O)NC(=O)[C@H](CCC(=O)O)NC(=O)CNC(=O)[C@H](Cc1ccccc1)NC(=O)[C@H](CCCNC(=N)N)NC(=O)[C@H](Cc1ccccc1)NC(=O)[C@H](CO)NC(=O)[C@H](CCC(=O)O)NC(=O)[C@H](C)NC(=O)[C@@H]1CCCN1C(=O)[C@@H]1CCCN1C(=O)[C@H](C)NC(=O)[C@@H](NC(=O)[C@H](CC(C)C)NC(=O)[C@H](C)NC(=O)[C@@H]1CCCN1C(=O)[C@@H]1CCCN1C(=O)[C@H](C)NC(=O)[C@@H](NC(=O)[C@@H]1CCCN1C(=O)[C@H](CCC(=O)O)NC(=O)[C@@H]1CCCN1C(=O)[C@H](CCCNC(=N)N)NC(=O)[C@H](CO)NC(=O)[C@H](CCC(N)=O)NC(=O)[C@@H](N)CC(C)C)[C@@H](C)O)[C@@H](C)O)[C@@H](C)O)[C@@H](C)O)[C@@H](C)O)C(=O)N[C@@H](CC(=O)O)C(=O)N[C@@H](CCCCN)C(=O)N[C@@H](CCC(=O)O)C(=O)N[C@@H](CC(C)C)C(=O)N[C@@H](Cc1ccc(O)cc1)C(=O)N1CCC[C@H]1C(=O)N[C@@H](CC(C)C)C(=O)N[C@@H](C)C(=O)N[C@@H](CO)C(=O)N[C@@H](CC(C)C)C(=O)N[C@@H](CCCNC(=N)N)C(=O)N[C@@H](CO)C(=O)N[C@@H](CC(C)C)C(=O)N[C@@H](Cc1ccccc1)C(=O)NCC(=O)N[C@@H](CO)C(=O)N[C@@H](CC(=O)O)C(=O)N1CCC[C@H]1C(=O)N[C@@H](CO)C(=O)N[C@@H](CO)C(=O)N[C@@H](CCC(N)=O)C(=O)O [PL] | comparable to their 2x and 3x counterparts | – | – | – | – | – | – | – | –
insulin | – | resulted in a stabilization of Aβ-FITC | stabilized sp6 | insensitive to exogenous insulin | insensitive to insulin treatment | ~ 50% and 50% | same impact | 0.066 | 0.025
